Data as given in patent US20050090429 (published 2005).

The binders below were run against T1, human SST-R2 (human, UniProt P30874) (assay: competition, SRIF-14 displacement).
T1 sequence (P30874 whole entry): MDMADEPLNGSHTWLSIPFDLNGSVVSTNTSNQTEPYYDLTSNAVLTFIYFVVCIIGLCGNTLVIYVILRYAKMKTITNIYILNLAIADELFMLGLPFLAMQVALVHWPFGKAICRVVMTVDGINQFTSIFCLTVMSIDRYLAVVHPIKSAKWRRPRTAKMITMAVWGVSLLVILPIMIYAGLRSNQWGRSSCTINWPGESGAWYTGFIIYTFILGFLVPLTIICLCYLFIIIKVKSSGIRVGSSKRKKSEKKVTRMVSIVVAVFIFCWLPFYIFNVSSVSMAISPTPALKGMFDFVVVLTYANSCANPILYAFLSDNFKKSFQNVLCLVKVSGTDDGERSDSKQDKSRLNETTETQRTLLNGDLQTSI

Row | Binder | IC50 [nM]
1 | GFWWKTFG (not fully specified; PTR 3213 core; fluorescein amide, betaAla linker; cyclic GlyS2* to GlyS2*; D-Trp; C-terminal amide) [YS-1-44] | 19
2 | FGFWWKTFG (not fully specified; PTR 3219 core; fluorescein thiourea, Gly linker; cyclic GlyS2* to GlyS2*; D-Phe1, D-Trp; C-terminal amide) [YS-1-58] | 18
3 | XFWWKTFG (not fully specified; PTR 3173-NH2 core; X = GABA; fluorescein amide, aminopentanoic linker; backbone cyclic; D-Trp; C-terminal amide) [YS-1-29] | 32
4 | FGFWWKTFG (not fully specified; PTR 3219 core; fluorescein amide, aminohexanoic linker; cyclic GlyS2* to GlyS2*; D-Phe1, D-Trp; C-terminal amide) [YS-1-76] | 13
5 | GFWWKTFG (not fully specified; PTR 3213 core; fluorescein amide, aminopentanoic linker; cyclic GlyS2* to GlyS2*; D-Trp; C-terminal amide) [YS-1-52] | 9
6 | GFWWKTFG (not fully specified; PTR 3213 core; fluorescein thiourea, no linker; cyclic GlyS2* to GlyS2*; D-Trp; C-terminal amide) [YS-1-54] | 48

What follows are binders tested against T1, human SST-R2 (assay: competition, 125I-Tyr11-SRIF-14 radioligand).

Row | Binder | IC50 [nM]
7 | FGFWWKTFG (not fully specified; PTR 3219 core; 5- and 6-carboxyfluorescein-betaAla conjugate; cyclic GlyS2* to GlyS2*; D-Phe1, D-Trp; C-terminal amide) [YS-1-64] | 3.9
8 | FGFWWKTFG (not fully specified; PTR 3219 core; 5- and 6-carboxyfluorescein-GABA conjugate; cyclic GlyS2* to GlyS2*; D-Phe1, D-Trp; C-terminal amide) [YS-1-68] | 5.7
9 | FCFWWKTFG (not fully specified; PTR 3207 core; 5-(aminothionyl)fluorescein-GABA conjugate; cyclic Cys* to GlyS2*; D-Phe1, D-Trp; C-terminal amide) [YS-1-86] | 1.7
10 | GFWWKTFG (not fully specified; PTR 3213 core; 5- and 6-carboxyfluorescein-GABA conjugate; cyclic GlyS2* to GlyS2*; D-Trp; C-terminal amide) [YS-1-48] | 5.4
11 | KXFWWKTFG (not fully specified; 5- and 6-carboxyfluorescein-Lys; X = GABA; backbone cyclic (GABA* to GlyC3*); D-Trp; C-terminal amide) [PTR 1017A-01] | 13.2
12 | FGFWWKTFG (not fully specified; PTR 3219 core; 5-(aminothionyl)fluorescein-aminopentanoyl conjugate; cyclic GlyS2* to GlyS2*; D-Phe1, D-Trp; C-terminal amide) [YS-1-70] | 2.9
13 | FGFWWKTFG (not fully specified; PTR 3219 core; 5-(aminothionyl)fluorescein-betaAla conjugate; cyclic GlyS2* to GlyS2*; D-Phe1, D-Trp; C-terminal amide) [YS-1-62] | 3
14 | XFWWKTFG (X = Dab; 5- and 6-carboxyfluorescein conjugate; backbone cyclic (Dab* to GlyC3*); D-Trp4; C-terminal GlyC3, amide) [PTR 1007A-01] | 78
